Target: APP751sw (751 form of APP carrying the Swedish mutation), P05067
Sequence (P05067 whole entry, looked up, change not shown): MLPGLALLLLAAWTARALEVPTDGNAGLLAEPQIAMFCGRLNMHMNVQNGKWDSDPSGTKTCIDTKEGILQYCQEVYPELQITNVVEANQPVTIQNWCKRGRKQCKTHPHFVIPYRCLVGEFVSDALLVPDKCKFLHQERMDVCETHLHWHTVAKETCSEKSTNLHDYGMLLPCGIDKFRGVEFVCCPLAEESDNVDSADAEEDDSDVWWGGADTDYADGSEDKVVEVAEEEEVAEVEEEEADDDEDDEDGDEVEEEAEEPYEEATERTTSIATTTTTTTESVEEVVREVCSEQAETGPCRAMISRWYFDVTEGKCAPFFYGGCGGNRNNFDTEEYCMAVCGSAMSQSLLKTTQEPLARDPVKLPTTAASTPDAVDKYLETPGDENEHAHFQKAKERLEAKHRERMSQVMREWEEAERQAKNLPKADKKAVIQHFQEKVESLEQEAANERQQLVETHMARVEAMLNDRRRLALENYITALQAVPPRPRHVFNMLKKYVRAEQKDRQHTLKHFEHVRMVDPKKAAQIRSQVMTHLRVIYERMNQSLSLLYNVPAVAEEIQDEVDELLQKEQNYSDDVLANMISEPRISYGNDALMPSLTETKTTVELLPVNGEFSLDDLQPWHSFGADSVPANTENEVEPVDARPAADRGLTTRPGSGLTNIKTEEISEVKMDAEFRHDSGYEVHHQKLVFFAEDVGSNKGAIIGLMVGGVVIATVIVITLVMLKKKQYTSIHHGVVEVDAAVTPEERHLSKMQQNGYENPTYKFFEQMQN

B1: BACE2 D110A (protein)
chain: ALEPALASPAGAANFLAMVDNLQGDSGRGYYLEMLIGTPPQKLQILVATGSSNFAVAGTPHSYIDTYFDTERSSTYRSKGFDVTVKYTQGSWTGFVGEDLVTIPKGFNTSFLVNIATIFESENFFLPGIKWNGILGLAYATLAKPSSSLETFFDSLVTQANIPNVFSMQMCGAGLPVAGSGTNGGSLVLGGIEPSLYKGDIWYTPIKEEWYYQIEILKLEIGGQSLNLDCREYNADKAIVDSGTTLLRLPQKVFDAVVEAVARASLIPEFSDGFWTGSQLACWTNSETPWSYFPKISIYLRDENSSRSFRITILPQLYIQPMMGAGLNYECYRFGISPSTNALVIGATVMEGFYVIFDRAQKRVGFAASPCAEIAGAAVSEISGPFSTEDVASNCVPAQSLSEPILWIVSYALMSVCGAILLVLIVLLLLPFRCQRRPRDPEVVNDESSLVRHRWK
  β-NTF formation, Q-HP Sepharose fractions of membrane extracts reconstituted with APP751sw for 2 hours at 37° C.: extracts derived from BACE2 D110A transfected cells lost their ability to cleave at the β-secretase site in vitro
